Laboratory results published in US6713265.

Target: T1, rat Y4 receptor (rat), Q63447
T1 chain: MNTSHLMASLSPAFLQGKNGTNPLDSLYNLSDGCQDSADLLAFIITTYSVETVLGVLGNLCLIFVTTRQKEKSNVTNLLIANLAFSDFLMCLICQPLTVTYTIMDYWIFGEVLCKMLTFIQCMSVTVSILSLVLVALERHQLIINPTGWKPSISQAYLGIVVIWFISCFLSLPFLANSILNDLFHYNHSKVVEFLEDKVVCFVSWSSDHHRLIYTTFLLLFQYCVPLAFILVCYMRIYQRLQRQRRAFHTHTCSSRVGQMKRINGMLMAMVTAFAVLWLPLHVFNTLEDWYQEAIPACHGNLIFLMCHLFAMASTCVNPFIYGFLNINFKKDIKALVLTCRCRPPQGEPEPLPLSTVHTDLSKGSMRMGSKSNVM
Assay: 125I-PYY displacement, COS-7 membranes
Details: remark: other sources report otherwise

Ki: 140 nM
Binder: PAEDLARYYSALRHYINLITRQRY (peptide, UniProt P01304 22-45, looked up) [porcine NPY13-36, P01304 22-45]
